Assay results published in patent US20160185832A1 (University of Pennsylvania, published 2016).

Tests used:
[1] = molecular target: T1, pure, pre-polymerized, taxol-stabilized microtubules of bovine tubulin (Cytoskeleton) (bovine, UniProt P81947 1-451; Q6B856 1-445, limits assumed); assay: in vitro microtubule co-sedimentation of in vitro translated GFP fusions, western blot
T1 construct: Polymer of alpha/beta tubulin dimers, polymerized with GTP and stabilized with 10 µM taxol; also called MT; MTs
Method: (§1) Crude TNT T7 reaction products were diluted 1:1 in BRB80 supplemented with 1 mM GTP and 10 μM taxol. The diluted products were then incubated at 30° C. for 30 minutes in either the presence or absence of pure, pre-polymerized microtubules. Reactions were then centrifuged through a 40% sucrose cushion at 48,000×g for 30 minutes, the supernatant was collected, and the pellet washed once with warm BRB80 and resuspended in 1×SDS PAGE sample buffer. Both fractions were subjected to SDS-PAGE and transferred to nitrocellulose. The presence of tubulin in the pellets was confirmed by Ponceau staining, and GFP-tagged CEP290 constructs were detected by immunoblotting.

[2] = molecular target: microtubule network of cultured human cells (hTERT-RPE1, 293T) (human, UniProt P68363 1-451; P07437 1-444); assay: cell-based or functional assay
[3] = molecular target: T1, pure, pre-polymerized, taxol-stabilized …; assay: in vitro microtubule co-sedimentation, percent of construct in the microtubule pellet (FIG. 4D)
Method: as §1

[4] = molecular target: T1, pure, pre-polymerized, taxol-stabilized …; assay: microtubule co-sedimentation, 1 nM purified 6×His truncation M with increasing microtubules, Coomassie gel, non-linear regression
Method: For the direct microtubule binding assay, 1 nM of recombinantly expressed and purified 6×His tagged CEP290 truncation M was incubated at 30° C. for 30 minutes with increasing amounts of pure, prepolymerized microtubules. Reactions were centrifuged and subjected to SDS-PAGE as above, and tubulin and CEP290 truncation M were detected by Coomassie blue staining.

T1 sequence (P81947 whole entry, chain 1 of 2, the tested form may be a part): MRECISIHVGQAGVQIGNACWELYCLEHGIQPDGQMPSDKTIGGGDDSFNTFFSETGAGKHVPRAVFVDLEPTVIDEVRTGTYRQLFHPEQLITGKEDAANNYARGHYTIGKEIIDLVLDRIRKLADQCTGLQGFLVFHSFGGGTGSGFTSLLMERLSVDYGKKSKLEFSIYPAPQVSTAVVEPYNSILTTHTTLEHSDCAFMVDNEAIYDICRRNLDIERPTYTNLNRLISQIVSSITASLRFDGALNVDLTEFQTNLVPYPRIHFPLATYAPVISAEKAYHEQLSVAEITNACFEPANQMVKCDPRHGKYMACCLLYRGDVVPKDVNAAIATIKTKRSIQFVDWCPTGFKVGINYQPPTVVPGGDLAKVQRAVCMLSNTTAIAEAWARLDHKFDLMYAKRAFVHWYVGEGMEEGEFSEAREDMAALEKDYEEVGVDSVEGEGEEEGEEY
T1 sequence (Q6B856 whole entry, chain 2 of 2, the tested form may be a part): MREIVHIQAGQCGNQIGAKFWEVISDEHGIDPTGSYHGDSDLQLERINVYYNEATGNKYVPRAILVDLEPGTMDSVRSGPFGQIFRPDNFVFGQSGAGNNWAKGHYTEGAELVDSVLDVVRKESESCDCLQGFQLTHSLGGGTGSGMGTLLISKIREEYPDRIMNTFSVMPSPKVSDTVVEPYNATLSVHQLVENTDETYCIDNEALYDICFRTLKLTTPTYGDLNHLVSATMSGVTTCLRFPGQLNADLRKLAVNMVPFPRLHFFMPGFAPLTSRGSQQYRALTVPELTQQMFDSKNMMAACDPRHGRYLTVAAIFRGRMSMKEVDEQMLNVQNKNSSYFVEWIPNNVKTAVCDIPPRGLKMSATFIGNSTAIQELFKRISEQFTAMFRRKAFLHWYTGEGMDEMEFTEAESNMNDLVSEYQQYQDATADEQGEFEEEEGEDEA
Sequence of microtubule network of cultured human cells (hTERT-RPE1, 293T) (P68363 whole entry, chain 1 of 2): as the sequence (P81947 whole entry, chain 1 of 2, the tested form may be a part) above
Sequence of microtubule network of cultured human cells (hTERT-RPE1, 293T) (P07437 whole entry, chain 2 of 2): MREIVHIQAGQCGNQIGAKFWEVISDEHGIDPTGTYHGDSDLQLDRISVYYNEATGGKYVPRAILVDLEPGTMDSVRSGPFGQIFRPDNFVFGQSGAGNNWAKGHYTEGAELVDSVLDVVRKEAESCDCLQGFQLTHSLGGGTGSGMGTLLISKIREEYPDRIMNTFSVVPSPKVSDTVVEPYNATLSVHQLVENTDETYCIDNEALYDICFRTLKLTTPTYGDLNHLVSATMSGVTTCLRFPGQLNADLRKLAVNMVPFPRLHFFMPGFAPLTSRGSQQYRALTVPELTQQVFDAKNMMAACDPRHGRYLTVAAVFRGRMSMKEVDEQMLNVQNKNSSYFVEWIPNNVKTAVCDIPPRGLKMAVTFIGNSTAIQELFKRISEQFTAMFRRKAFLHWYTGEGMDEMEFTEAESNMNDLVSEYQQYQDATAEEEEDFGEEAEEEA

B1: GFP-tagged "Deleted" CEP290 truncation (part of the microtubule binding region deleted in the rd16 mouse) (other)
chain: DQSQKESQCLKSELQAQKEANSRAPTTTMRNLVERLKSQLALKEKQQKALSRALLELRAEMTAAAEERIISATSQKEAHLNVQQIVDRHTRELKTQVEDLNENLLKLKEALKTSKNRENSLTDNLNDLNNELQKKQKAYNKILREKEEIDQENDELKRQIKRLTSGLQGKPLTDNKQSLIEELQRKVKKLENQLEGKVEEVDLKPMKEK
notes: not shown: N-terminal GFP tag from pcDNA-DEST53 (Gateway)
B1: no binding [1].

B2: GFP fusion of CEP290 aa 1-1966 (other)
chain: MPPNINWKEIMKVDPDDLPRQEELADNLLISLSKVEVNELKSEKQENVIHLFRITQSLMKMKAQEVELALEEVEKAGEEQAKFENQLKTKVMKLENELEMAQQSAGGRDTRFLRNEICQLEKQLEQKDRELEDMEKELEKEKKVNEQLALRNEEAENENSKLRRENKRLKKKNEQLCQDIIDYQKQIDSQKETLLSRRGEDSDYRSQLSKKNYELIQYLDEIQTLTEANEKIEVQNQEMRKNLEESVQEMEKMTDEYNRMKAIVHQTDNVIDQLKKENDHYQLQVQELTDLLKSKNEEDDPIMVAVNAKVEEWKLILSSKDDEIIEYQQMLHNLREKLKNAQLDADKSNVMALQQGIQERDSQIKMLTEQVEQYTKEMEKNTCIIEDLKNELQRNKGASTLSQQTHMKIQSTLDILKEKTKEAERTAELAEADAREKDKELVEALKRLKDYESGVYGLEDAVVEIKNCKNQIKIRDREIEILTKEINKLELKISDFLDENEALRERVGLEPKTMIDLTEFRNSKHLKQQQYRAENQILLKEIESLEEERLDLKKKIRQMAQERGKRSATSGLTTEDLNLTENISQGDRISERKLDLLSLKNMSEAQSKNEFLSRELIEKERDLERSRTVIAKFQNKLKELVEENKQLEEGMKEILQAIKEMQKDPDVKGGETSLIIPSLERLVNAIESKNAEGIFDASLHLKAQVDQLTGRNEELRQELRESRKEAINYSQQLAKANLKIDHLEKETSLLRQSEGSNVVFKGIDLPDGIAPSSASIINSQNEYLIHLLQELENKEKKLKNLEDSLEDYNRKFAVIRHQQSLLYKEYLSEKETWKTESKTIKEEKRKLEDQVQQDAIKVKEYNNLLNALQMDSDEMKKILAENSRKITVLQVNEKSLIRQYTTLVELERQLRKENEKQKNELLSMEAEVCEKIGCLQRFKEMAIFKIAALQKVVDNSVSLSELELANKQYNELTAKYRDILQKDNMLVQRTSNLEHLECENISLKEQVESINKELEITKEKLHTIEQAWEQETKLGNESSMDKAKKSITNSDIVSISKKITMLEMKELNERQRAEHCQKMYEHLRTSLKQMEERNFELETKFAELTKINLDAQKVEQMLRDELADSVSKAVSDADRQRILELEKNEMELKVEVSKLREISDIARRQVEILNAQQQSRDKEVESLRMQLLDYQAQSDEKSLIAKLHQHNVSLQLSEATALGKLESITSKLQKMEAYNLRLEQKLDEKEQALYYARLEGRNRAKHLRQTIQSLRRQFSGALPLAQQEKFSKTMIQLQNDKLKIMQEMKNSQQEHRNMENKTLEMELKLKGLEELISTLKDTKGAQKVINWHMKIEELRLQELKLNRELVKDKEEIKYLNNIISEYERTISSLEEEIVQQNKFHEERQMAWDQREVDLERQLDIFDRQQNEILNAAQKFEEATGSIPDPSLPLPNQLEIALRKIKENIRIILETRATCKSLEEKLKEKESALRLAEQNILSRDKVINELRLRLPATAEREKLIAELGRKEMEPKSHHTLKIAHQTIANMQARLNQKEEVLKKYQRLLEKAREEQREIVKKHEEDLHILHHRLELQADSSLNKFKQTAWDLMKQSPTPVPTNKHFIRLAEMEQTVAEQDDSLSSLLVKLKKVSQDLERQREITELKVKEFENIKLQLQENHEDEVKKVKAEVEDLKYLLDQSQKESQCLKSELQAQKEANSRAPTTTMRNLVERLKSQLALKEKQQKALSRALLELRAEMTAAAEERIISATSQKEAHLNVQQIVDRHTRELKTQVEDLNENLLKLKEALKTSKNRENSLTDNLNDLNNELQKKQKAYNKILREKEEIDQENDELKRQIKRLTSGLQGKPLTDNKQSLIEELQRKVKKLENQLEGKVEEVDLKPMKEKNAKEELIRWEEGKKWQAKIEGIRNKLKEKEGEVFTLTKQLNTLKDLFAKADKEKLTLQRKLKT
notes: The text says only 'lacking the C-terminus'; also called truncation lacking the C-terminus; not shown: N-terminal GFP tag from pcDNA-DEST53 (Gateway)
B2 was tested, and the “percent of transfected cells with increased microtubule acetylation and bundling” value [2] was ~40%, the “percent of transfected hTERT-RPE1 cells with a fibrillar localization pattern” value [2] was ~60% and the “percent associated with microtubules” value [3] was < 50%.

B3: 6×His tagged CEP290 truncation M (aa 1695-1966), recombinantly expressed and purified (other)
chain: DQSQKESQCLKSELQAQKEANSRAPTTTMRNLVERLKSQLALKEKQQKALSRALLELRAEMTAAAEERIISATSQKEAHLNVQQIVDRHTRELKTQVEDLNENLLKLKEALKTSKNRENSLTDNLNDLNNELQKKQKAYNKILREKEEIDQENDELKRQIKRLTSGLQGKPLTDNKQSLIEELQRKVKKLENQLEGKVEEVDLKPMKEKNAKEELIRWEEGKKWQAKIEGIRNKLKEKEGEVFTLTKQLNTLKDLFAKADKEKLTLQRKLKT
notes: Expressed in E. coli BL21(DE3)pLysS, purified on Ni-NTA; also called region M; CEP290 region M; not shown: N-terminal 6×His tag from pDest-527
Binder B3 has a Kd [4] of ~100 nM.
